Source: publication PMC7583084, “Biochemical Characterization of a Flavonoid O-methyltransferase from Perilla Leaves and Its Application in 7-Methoxyflavonoid Production” (Molecules, 2020)

Assays:
Conditions in all cases: co-substrate SAM (100 µM in activity assay), 20 mM Tris-HCl pH 7.5, 37 °C, substrate 0.5-100 µM
[1] = substrate: O=c1cc(-c2ccc(O)cc2)oc2cc(O)cc(O)c12; assay: purified protein
[2] = substrate: O=c1c(O)c(-c2ccc(O)cc2)oc2cc(O)cc(O)c12; assay: HPLC assay of 7-O-methylation; type: biochemical, Perilla frutescens
[3] = substrate: O=C1C[C@@H](c2ccc(O)c(O)c2)Oc2cc(O)cc(O)c21; assay: HPLC assay of 7-O-methylation; type: biochemical, Perilla frutescens
[4] = substrate: O=c1cc(-c2ccccc2)oc2cc(O)cc(O)c12; assay: HPLC assay of 7-O-methylation; type: biochemical, Perilla frutescens
[5] = substrate: O=c1cc(-c2ccc(O)c(O)c2)oc2cc(O)cc(O)c12; assay: HPLC assay of 7-O-methylation; type: biochemical, Perilla frutescens
[6] = substrate: O=C1C[C@@H](c2ccc(O)cc2)Oc2cc(O)cc(O)c21; assay: HPLC assay of 7-O-methylation; type: biochemical, Perilla frutescens

B1: PfOMT3 (Perilla frutescens) (protein)
chain: MKNSSTDEDLSIFAMQVATSSIVPRALKAVIELDLLEMMKKAGRPLSTSEMAAQIQATNPEAALMIDRILRVLIASNILECTTAASHGGAERLYSLAPVCKFFTKNDDGVSWAPLFLMIQDRVFTEAWDHVKDAIVEGGIPFNIAHGMSGFEYPATDPRYNKIFNQAMSDESTMFMHKILELYDGFDGLKSVVDVGGGIGASLKMIITKYPSIQAINFDLPHVIQNAPSHPGLEHRSGDMFVSVPTGDAILLKWIIHNWSDGHCLKLLKNCYEALPEKGKVIIADRILPETENYKEASASVDLAGDALMLTLFTGGKERAEAEFQALAKASGFKHFRKVCCAFSTWIMELYK
notes: primers encode MKNSSTD at start and IMELYK at end
Q: B1 was tested. Which Km [1] did it give?
A: 3.72 ± 0.05 µM

Q: What about the Vmax [1] of the same protein?
A: 0.0133 µmol/min/mg

Q: What about the kcat [1] of the same protein?
A: 0.0091 s⁻¹

Q: What about the kcat/Km [1] of the same protein?
A: 2440 M⁻¹ s⁻¹

Q: And the Km [2]?
A: 17.88 ± 0.49 µM

Q: What about the Vmax [2] of the same protein?
A: 0.00581 µmol/min/mg

Q: And the kcat [2]?
A: 0.00397 s⁻¹

Q: What about the kcat/Km [2] of the same protein?
A: 222 M⁻¹ s⁻¹

Q: What about the Km [3] of the same protein?
A: 13.08 ± 1.42 µM

Q: And the Vmax [3]?
A: 0.00784 µmol/min/mg

Q: What about the kcat [3] of the same protein?
A: 0.00535 s⁻¹

Q: What about the kcat/Km [3] of the same protein?
A: 409 M⁻¹ s⁻¹

Q: And the Km [4]?
A: 1.31 ± 0.25 µM

Q: And the Vmax [4]?
A: 0.00205 µmol/min/mg

Q: And the kcat [4]?
A: 0.0014 s⁻¹

Q: What about the kcat/Km [4] of the same protein?
A: 1070 M⁻¹ s⁻¹

Q: What about the Km [5] of the same protein?
A: 34.21 ± 4.65 µM

Q: And the Vmax [5]?
A: 0.00418 µmol/min/mg

Q: And the kcat [5]?
A: 0.00285 s⁻¹

Q: What about the kcat/Km [5] of the same protein?
A: 83.4 M⁻¹ s⁻¹

Q: What about the Km [6] of the same protein?
A: 13.40 ± 1.29 µM

Q: What about the Vmax [6] of the same protein?
A: 0.0517 µmol/min/mg

Q: What about the kcat [6] of the same protein?
A: 0.0353 s⁻¹

Q: And the kcat/Km [6]?
A: 2630 M⁻¹ s⁻¹
